The record followed here is FireProtDB (doi:10.1021/bi990893b).

As a reminder, the Tm is the temperature at the midpoint of the melting transition.

The conditions of the series: Bos taurus; pH 7; Thermal; Absorbance; Sodium phosphate 100 mM; whole UniProt chain shown.

B1: Cytochrome b5 wild type, P00171 (protein)
chain: MAEESSKAVKYYTLEEIQKHNNSKSTWLILHYKVYDLTKFLEEHPGGEEVLREQAGGDATENFEDVGHSTDARELSKTFIIGELHPDDRSKITKPSESIITTIDSNPSWWTNWLIPAISALFVALIYHLYTSEN
B1: the Tm turned out to be 67.2 °C and the “unfolding enthalpy (van 't Hoff)” value stood at 95.1 kcal/mol.
